Where a chain is given by its changes, count along the chain named. Blank lines part the entries; values can stand above or below the binder they belong to.
What was measured:
human 4-1BB (CD137) = human 4-1BB (CD137) (human, UniProt Q07011 24-255); assay: cell-based or functional assay
[1] = target: T1, CD134 protein (His-tagged, Sino Biological Inc. 10481-H08H) (human, UniProt P43489 29-216); assay: ELISA, coated His-tagged CD134; also: test concentration or dose not given here
T1 construct: bought protein coated on ELISA plates; also called OX40; TNFRSF4; not shown: His tag
T1 sequence (looked up): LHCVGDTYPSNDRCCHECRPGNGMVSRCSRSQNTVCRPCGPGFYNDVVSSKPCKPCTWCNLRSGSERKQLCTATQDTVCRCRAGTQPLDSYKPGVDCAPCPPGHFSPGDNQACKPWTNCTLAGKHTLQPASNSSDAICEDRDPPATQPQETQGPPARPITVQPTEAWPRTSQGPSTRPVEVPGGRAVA

[2] = target: T2, CD134 expressed on the cell surface of HT1080_OX40 cells (human, UniProt P43489 29-277); assay: cell-based or functional assay
T2 sequence (looked up): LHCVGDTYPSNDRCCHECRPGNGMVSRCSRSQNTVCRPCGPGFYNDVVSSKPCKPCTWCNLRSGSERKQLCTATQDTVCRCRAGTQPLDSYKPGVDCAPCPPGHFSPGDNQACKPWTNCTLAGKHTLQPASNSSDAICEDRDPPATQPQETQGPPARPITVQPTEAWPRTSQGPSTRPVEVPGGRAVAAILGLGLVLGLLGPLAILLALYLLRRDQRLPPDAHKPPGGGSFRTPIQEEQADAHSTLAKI

[3] = target: T2, CD134 expressed on the cell surface of …; assay: cell-based or functional assay; remark: listed apart in the source
[4] = target: T2, CD134 expressed on the cell surface of …; assay: HT1080_OX40 cells, imaging; also: test concentration or dose not given here
For Functional assay Cross-linked by F(ab′)2 fragment IL-8 in this document: test concentration or dose not given here.
For Functional assay IL-8 in this document: test concentration or dose not given here.

Sequence of human 4-1BB (CD137) (Q07011 24-255): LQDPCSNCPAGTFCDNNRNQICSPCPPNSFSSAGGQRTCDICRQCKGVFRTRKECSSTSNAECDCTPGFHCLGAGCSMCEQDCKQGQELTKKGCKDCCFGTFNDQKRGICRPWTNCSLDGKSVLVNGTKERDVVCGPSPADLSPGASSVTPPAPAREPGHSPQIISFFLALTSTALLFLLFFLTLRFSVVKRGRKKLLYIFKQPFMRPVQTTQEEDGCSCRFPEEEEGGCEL

EC 50 [ng/mL] of agonistic function (IL-8 release from CD137-overexpressing HT1080 cells, antibody cross-linked by F(ab')2 goat anti-human IgG) (human 4-1BB (CD137)): 5820 ng/mL
B3: P018.S.14.A.H01 (antibody, V domains shown)
VH: QSVEESGGRLVTPGTPLTLTCTVSGFSLSDYYMTWVRQAPGKGLEYIGIMSGSGSTYYASWAKGRFTISKTSSTTLELKITSPTTEDTAIYFCARDGDYAGWGYATGAFDPWGPGTLVTVSS
VL: AAVLTQTPSPVSAAVGGTVTISCQASQSVVGNSLLSWFQKKPGQPPKLLIYSASSLASGVPSRFKGSGSGTQFTLTISDLESDDAATYYCTGRYNSDTDTFVFGGGTEVVVK

EC 50 [ng/mL] of agonistic function (IL-8 release from CD137-overexpressing HT1080 cells, antibody cross-linked by F(ab')2 goat anti-human IgG) (human 4-1BB (CD137)): 3500 ng/mL
B10: P018.S.14.A.G03 (antibody, V domains shown)
VH: QSLEESGGRLVTPGTPLTLTCTVSGIDLSSYHMCWVRQAPGKGLEYIGYIAYGGNTYYANWAKGRFTISKTSTTVDLRITSPTTEDTATYFCARGYSEDSYWGLWGPGTLVTVSS
VL: AYDMTQTPASVEAAVGGTVTIKCQASQNIENYLAWYQQKPGQPPKLLIYDTSKLTSGVPSRFSGSGSGTDFTLTISGVQSDDAATYYCQQDYGIIFVDNIFGGGTEVVVK

EC 50 [ng/mL] of agonistic function (IL-8 release from CD137-overexpressing HT1080 cells, antibody cross-linked by F(ab')2 goat anti-human IgG) (human 4-1BB (CD137)): 6790 ng/mL
B11: P018.S.14.A.A04 (antibody, V domains shown)
VH: QSLEESGGRLVTPGTPLTLTCTVSGFSLNDYWMSWVRQAPGKGLEWIGYIDVGGSLYYASWAKGRFTISRTSTTVDLKMTSLTTEDTATYFCARGGLTYGFDLWGPGTLVTVSS
VL: DIVMTQTPASVSEPVGGTVTINCQASEDISSYLAWYQQKPGQRPKRLIYGASDLASGVPSRFSASGSGTEYALTISDLESADAATYYCHYYATISGLGVAFGGGTEVVVK

EC 50 [ng/mL] of agonistic function (IL-8 release from CD137-overexpressing HT1080 cells, antibody cross-linked by F(ab')2 goat anti-human IgG) (human 4-1BB (CD137)): 10200 ng/mL
B12: P018.S.14.A.D06 (antibody, V domains shown)
VH: QSVEESGGRLVTPGTPLTLTCTVSGFSLSTYAMIWVRQAPGKGLEWIGVVYDNGYISHATWVKGRFTISKTSTTVGLEITSPTTEDTATYFCARSADGSWSTYFNLWGQGTLVTVSS
VL: DIVMTQTPASVEAAVGGTVTIKCQASESISNYLAWYQQKPGQPPKLLIYKASTLASGVSSRFKGSGSGTEFTLTISDLESADAATYYCQTNYCCSSSDNGFAFGGGTEVVVK

Continued, binder first:

B1: P018.S.13.A.C02 (antibody, V domains shown)
VH: QSVEESGGRLVTPGTPLTLTCTVSGFSLSSYAMSWVRQAPGKGLEWIGIISTSGITYYASWAKGRFTISKTSTMVDLKITSPTTEDTATYFCARLNGFDDYVRYFDFWGLGTLVTVSS
VL: AIELTQTPSSVSAAVGGTVTINCQASESIASNLAWYQQKPGQPPKLLIYAASYLASGVPSRFKGSGSGTEYTLTISGVQSADAATYYCQSAFYVSSSDNAFGGGTEVVVK
EC 50 [ng/mL] of agonistic function (IL-8 release from CD137-overexpressing HT1080 cells, antibody cross-linked by F(ab')2 goat anti-human IgG) (human 4-1BB (CD137)): 3500 ng/mL

B2: P018.S.13.A.A06 (antibody, V domains shown)
VH: QSVEESGGRLVTPGTPLTLTCTASGFTISDFHVTWVRQAPGKGLEWIGTIITSASTTAYATWARGRFTISKSSTTVNLKIVSPTTEDTATYFCARSTYTDTSGYYFDFWGQGTLVTVSS
VL: AQVLTQTASPVSAAVGGTVIINCQSSQSIYNGNRLSWYQQKPGQPPKLLIYSASTLASGVSSRFKGSGSGTQFTLAISDVQSDDAATYYCLGSYDCDSADCFAFGGGTEVVVE
EC 50 [ng/mL] of agonistic function (IL-8 release from CD137-overexpressing HT1080 cells, antibody cross-linked by F(ab')2 goat anti-human IgG) (human 4-1BB (CD137)): 7790 ng/mL

B4: P018.S.13.A.A05 (antibody, V domains shown)
VH: QSLEESGGRLVTPGTPLTLTCTASGFSLSRYDMSWVRQAPGKGLEYIGVISSSGGTNYANWAKGRFTISKTSTTVDLKITSPTTEDTATYFCAREGDYWDFNLWGPGTLVTVSS
VL: AQVLTQTPSSVSAAVGGTVTINCQASQSISNLLAWYQQKPGQPPKLLIYGASTLASGVPSRFSGSGSGTEFTLTISDLESDDAATYYCAGGFPGLDTVAAFGGGTEAVVT
EC 50 [ng/mL] of agonistic function (IL-8 release from CD137-overexpressing HT1080 cells, antibody cross-linked by F(ab')2 goat anti-human IgG) (human 4-1BB (CD137)): 3720 ng/mL

B5: P018.S.13.A.G04 (antibody, V domains shown)
VH: B4 VH with R30S, V49Y, G55N, N57Y, N60S, G64S
VL: B4 VL with P43R, K45R, G50R, S63K, D81E, V98G, A100T
EC 50 [ng/mL] of agonistic function (IL-8 release from CD137-overexpressing HT1080 cells, antibody cross-linked by F(ab')2 goat anti-human IgG) (human 4-1BB (CD137)): 255000 ng/mL

B6: P018.S.08.A.A04 (antibody, V domains shown)
VH: QSVEESGGRLVTPGTPLTLTCTVSGFSLSSYAVSWVRQAPGKGLEWIGVIWNNGATHYATWAKGRFTISKASTTVDLKVTSPTTEDTATYFCARSANDAWSTYSDLWGQGTLVTVSS
VL: DIVMTQTPASVEAAVGGTVTIKCQASQTITNYLSWYQQKPGQPPKLLIYKASTLTSGVSSRFKGSGSGTEFTLTISDLESDDAATYYCQNYYYGSSSGYGFVFGGGTEVVVK
EC 50 [ng/mL] of agonistic function (IL-8 release from CD137-overexpressing HT1080 cells, antibody cross-linked by F(ab')2 goat anti-human IgG) (human 4-1BB (CD137)): 5150 ng/mL

B7: P018.S.08.A.F03 (antibody, V domains shown)
VH: QSVEESGGRLVTPGTPLTLTCTASGFTISSYHMIWVRQAPGEGLEWIGDIYGGTATTDYASWAKGRFTISKTSTTVDLKMTSLTTEDTATYFCARARYSGGSYANYVFNLWGQGTLVTVSS
VL: DIVMTQTPASVEAAVGGTVTIKCQASQSISSYLAWYQQKPGQPPKLLIYRTSTLESGVPSRFKGSGSGTEFTLTISDLESADAATYYCQGYDWSSSNRYDNTFGGGTEVVVK
EC 50 [ng/mL] of agonistic function (IL-8 release from CD137-overexpressing HT1080 cells, antibody cross-linked by F(ab')2 goat anti-human IgG) (human 4-1BB (CD137)): 2710 ng/mL

B8: P018.S.13.A.G03 (antibody, V domains shown)
VH: QSLEESGGRLVTPGTPLTLTCTASGFSLSSYDVSWVRQAPGKGLEYIGFIGSDGSAHYATWVKGRFTISKTSTTVDLKITSPTTEDTATYFCARDWNDYWAHDLWGPGTLVTVSS
VL: AQVLTQTTSPVSAAVGGTVTINCQASQIVTSKSALSWYQQKPGQPPRLLIYKASTLASGVPSRFSGSGSGTQFTLTISDLESDDAATYYCAGGYYNSGDLNPFGGGTEVVVK
EC 50 [ng/mL] of agonistic function (IL-8 release from CD137-overexpressing HT1080 cells, antibody cross-linked by F(ab')2 goat anti-human IgG) (human 4-1BB (CD137)): 4780 ng/mL

B9: P018.S.08.A.E03 (antibody, V domains shown)
VH: QSVEESGGRLVTPGTPLTLTCTVSGFSLTYYAVTWVRQPPGKGLEWIGVIYDNGATAFATWAKGRFTMSKNSTTVALKVTSPTTEDTATYFCARSANNAWSTYSNLWGQGTLVTVSS
VL: DIVMTQTPSSVSAAVGGTVTINCQASEDISSYLSWYQQKLGQPPKLLIYKASTLESGVPSRFKGSGSGTEYTLTISDLESDDAATYYCQSYYSGSISGYGFVFGGGTGVVVK
EC 50 [ng/mL] of agonistic function (IL-8 release from CD137-overexpressing HT1080 cells, antibody cross-linked by F(ab')2 goat anti-human IgG) (human 4-1BB (CD137)): 4960 ng/mL

B13: P018.S.05.A.F05 (as anti-CD134 antibody) (antibody, V domains shown)
VH: QSVEESGGRLVTPGTPLTLTCTVSGFSLSNYYMTWVRQAPGKGLEYIGIIGSGVSTYYANWAKGRFTISKASSTTVDLKMTSPTTEDTATYFCARDMYVGNWGDWGLWGQGTLVTVSS
VL: AYDMTQTPASVEVAVGGTVTIKCQASQSISNNLNWYQQKPGQPPKLLIYSVSTLASGVPSRFKGSGSGTDYTLTISGVESVDAATYYCQQDYRIGDLDSAFGGGTEVVVK
notes: V regions on human Ig constant parts; also called AB134_16
ELISA [abs. corr.] [1]: 2.41 abs. corr. | Functional assay Cross-linked by F(ab′)2 fragment IL-8 [2]: 1.71 abs. corr. | Functional assay IL-8 [2]: 0.187 abs. corr. | EC 50 (IL-8 release, cross-linked) [3]: 7.12 µg/mL | Cellular binding assay [RFU] [4]: 392 RFU

Source: patent US20210253725A1 (BIONTECH, published 2021)
